Assay: label from the status in PepcDB records
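Further: failed if final PepcDB status was selected cloned or expressed and not failed if soluble or beyond.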

MTAHKQPEANETESLLEQVQALESEVRGVVKTQLQLAGMETRRAGESFVRMVAFAVLAACLAFTAWAVLVTAAVIAIVNSSVMSLTTALVIVAVAHLAAAFYIVRYIKRRSRDLLFAETSSSL
protein production: failed

MAQFAVIGLGSFGATVATELTKLNHDVIGIDSVKRNVEDLSDQLTHAVIADASDEHVLEELNIQNCETVVVAIGEDIEASILCVLHLKNMGVPQIWVKAKTKAHHMILSHLHVDKIIHPEEDMGVRIAQALNYPMVSRYMALDNDHFIVKVEIPKHLNGVHLLGLINEMSDVKTILLKRGKDIIYEPDPTCPVQSKDILILEGHIDQLKKLSRRFLPHEKTKN
protein production: failed

MGGGRQILHTLEQDVYFSHAHRVEIPASVTAHLFYQHFGYRPKPGGIYPDDEGLYRLEKFPHESFH
protein production: failed

MKFRIDTFTLLLLGAIVLASFLPVTGQAAEALGTAGTIAVALLFFFHGAALSRQQIIDGATHWRLHILITALTFVFFPLAVLPVNELNTIAPEWMPKDLGLGFLYLGVLPSAVSSSIAYTAMARGNVPAAICSAAASNVFGMMLTPFLLLLLVSTSGAGEFSVAEALKDIVLQLLLPFAVGHALRPWLGGYLSRNESLMARYDQCVIWIIVYSAFSHSVVSGLWQNLPVQAIVLAILICFGLLGLFMLIARLMVRKLGFSLEDEAAVVFCGSKKSLASGLPMAKVLFSGHPGFGMIVLPIMCYNQIQVIVGAILAQKYREKIQQAKSAPAHASENGCQNR
protein production: failed

MLHKRASEANDKNDNTIIGSDLASSKKRRIDFTESSSDKSSSILASGSSRGFHGDSVVQQIDMAFGNSNRQEIDEDLHSRQLAVYGRETMRRLFASNVLISGMHGLGAEIAKNLILAGVKSVTLHDERVVELWDLSSNFVFSEDDVGKNRADASVQKLQDLNNAVVVSSLTKSLNKEDLSGFQVVVFSDISMERAIEFDDYCHSHQPPIAFVKADVRGLFGSVFCDFGPEFAVLDVDGEEPHTGIIASISNENQAFISCVDDERLEFEDGDLVVFSEVEGMTELNDGKPRKIKSTRPYSFTLDEDTTNYGTYVKGGIVTQVKQPKLLNFKPLREALKDPGDFLFSDFSKFDRPPLLHLAFQALDHFKAEAGRFPVAGSEEDAQKLISIATAINTGQGDLKVENVDQKLLRHFSFGAKAVLNPMAAMFGGIVGQEVVKACSGKFHPLFQFFYFDSVESLPSEPVDSSDFAPRNSRYDAQISVFGAKFQKKLEDAKVFTVGSGALGCEFLKNLALMGVSCGSQGKLTVTDDDIIEKSNLSRQFLFRDWNIGQAKSTVAASAAAVINPRFNIEALQNRVGAETENVFDDAFWENLTVVVNALDNVNARLYVDSRCLYFQKPLLESGTLGTKCNTQSVIPHLTENYGASRDPPEKQAPMCTVHSFPHNIDHCLTWARSEFEGLLEKTPAEVNAYLSSPVEYTNSMMSAGDAQARDTLERIVECLEKEKCETFQDCLTWARLRFEDYFVNRVKQLIYTFPEDAATSTGAPFWSAPKRFPRPLQYSSSDPSLLNFITATAILRAETFGIPIPEWTKNPKEAAEAVDRVIVPDFEPRQDAKIVTDEKATTLTTASVDDAAVIDDLIAKIDQCRHNLSPDFRMKPIQFEKDDDTNYHMDVIAGLANMRARNYSIPEVDKLKAKFIAGRIIPAIATSTAMATGLVCLELYKVLDGGHKVEAYRNTFANLALPLFSMAEPLPPKVVKHRDMAWTVWDRWVLKGNPTLREVLQWLEDKGLSAYSISCGSCLLFNSMFTRHKERMDKKVVDLARDVAKVELPPYRNHLDVVVACEDEDDNDVDIPLVSIYFR
protein production: failed

MNFPHMIPYNAPYYFVLLIAALLPMILTLAIKGTRWPWYQTLVTLVFLYISFGGEFWQQGVALIVYVIYQTLLTWGYAAYRKNKNAGWVFYLAVFLAILPLVWVKVSPFMTGKTTLLGFLGISYLTFKAVQVVMDLRDGVMKEYHPFRYIQFLLFFPTISSGPIDRYRRFEKDLKNPPSAEKYLDFLEKGIFYLFLGFLYKFIISHYLGGVFLPHVEKMALAQGGLSWWTVGYMYNYSLYLFFDFAGYSLLAVGTSYLMGYDTPMNFNKPFLSWNIKEFWNRWHMTLSFWFRDYIYMRLMFFLMKKKVFKSRIVTSNIGYFALFLIMGIWHGLTWFYIAYGLYHATLICVTDAWLRFKKKHKDKIPSNKFTHAFAVFLTFQAVCVSFLIFSGFLDKLWFK
protein production: not failed

MDTLKVRDAQEVEDAVRAAIANEQPIEIVGHGSKRSIGQLMSTNAVLELSALNAVTAYEPNELIITVQAGAPMADVLSLIDSKNQQFAFEPMDTATLLGTTPGAGTVAGMISAGLAGPRRIKAGGARDHLLGANAVSGFGESFKAGGKVVKNVTGYDLCKLLAGSWGTLAVMTEVTLKVTPRPESERTLVLRGLADVVANKAMTAALGSPYDVTGAAHLPGSALRTTAGALAEIAQPDQSLTLLRLEGITSSASHRAQSLRAALKSFGDAELIEDDASAALWRAVRDVEPFAASGPRALWPVWRIVCPPAAGGAFGEQLSRESGGEVIYDWGGGLIWAALPPATDGHAKALRQRVEKIGGHATLIRGSDAVRAGIDIFHPQPAGLAALGSRVKRSFDPTNILNRGRMSRGSAT
protein production: failed

EPPKLVNDKPHKFKDHFFKKPKFCDVCARMIVLNNKFGLRCKNCKTNIHEHCQSYVEMQRC
protein production: not failed

MHISFIIPAFNEEQLIEPCLRSITDAVAANRSYGYTSEIIVVDNNSTDATAQLAKQAGAQVVFEPVNHIARARTAGAGAARGDWLVFMDADCLLNAGLVGDIFELIRQGRHIGAGSTLYMPGQPWWAEMLLRIWTFLSVQLGWAAGALIVCNAAAFREVGGFDLTLYAAEEIDLSQKLKKYGRKRKLKFAILNAHPLETSSRKTQLYSGWEIVGQFLRLVLSPLGTLRNKKKLPMWYDGRRLEHHHHHH
protein production: not failed

ENEIERPEDMRVRTLANKSKMKVSIVQQIDRKVALDDIAVSHGLDFPELLSEVETIVYSGTRINIDYFINEVMDEDHLEDIFEYFKESTTDSLEEAMQELGKDYSEEEIRLVRIKFLSEMAN
protein production: not failed

MVGQIAKEMGLRAYIVGGVVRDILLGKEVWDVDFVVEGNAIELAKELARRHGVNVHPFPEFGTAHLKIGKLKLEFATARRETYPRPGAYPKVEPASLKEDLIRRDFTINAMAISVNLEDYGTLIDYFGGLRDLKDKVIRVLHPVSFIEDPVRILRALRFAGRLNFKLSRSTEKLLKQAVNLGLLKEAPRGRLINEIKLALREDRFLEILELYRKYRVLEEIIEGFQWNEKVLQKLYALRKVVDWHALEFSEERIDYGWLYLLILISNLDYERGKHFLEEMSAPSWVRETYKFMKFKLGSLKEELKKAKENYEVYRLLKPLHTSVLLLLMLEEELKEKIKLYLEKLRKVKLPKEKIEELKKQGLKGKELGERIEELKREIMNKIKLAAALE
protein production: not failed

MNEPLHLYVHIPFCLKKCRYCSFVSRSDAPLAIDDYASLVAREMEMRVAAANPLPLSPATTLYLGGGTPSLLSPAALERIIDAAARSYGLGPGAEITLEANPGTVTFQRLADFRSAGVNRLSLGVQSFDDGMLVLLGRLHTARQAREAVAATRRAGFDNIGIDLIHSLPGQTPDQWREQLACAVALNPDHVSAYGLTVEEGTPFAAMEERGELVLPDEEQSALMFEATTDVLVSAGFEHYEIANFARPHRRSRHNQVYWLRRNYLGFGAGAHSFLRAPAFGVRWKNTDDLELYRDTLAAAELPGEERTVLSRADAMAEFFFLGLRLLDGVREEDFVREFGDTMENVYGREMERLCSAGLLMREGGRLKLSRRGVILANRVFASFL
protein production: failed

MANFKVVVSDPKEARAYQIDIKDAEANALIGKSIGDVVDGSIFGLAGYKVQITGGCDGSGFVMKPDLPGPRRQRILTATGVGYVPKLPGQRRRKMMRGKEIAPDIVQVNAKVVEYGSKSIKALLGLETAEEAPAAELEHHHHHH
protein production: not failed

MAITVKGLTNKLTRTQRRIAVVEFIFSLLFFLPKEAEVIQADFLEYDTKERQLNEWQKLIVKAFSENIFSFQKKIEEQQLKNQLEIQTKYNKISGKKIDLLTTAVVLCALSEQKAHNTDKPLLISEALLIMDHYSQGAEKKQTHALLDKLL
protein production: not failed

MCTFCSIINRELEGYFVYEDEKFAAILDKYPVSLGHTLVIPKKHFENYLEADEDTLAELAKVVKLVSLGIKDAVKADGLRLLTNIGRSAGQVIFHLHVHIIPTWEGDYPDIFKSFKPRKEQEKEYYELLQKIIRESIENLKRKIGDYKWG
protein production: not failed

MMDYGIDIWGNENFIIKNGKVCINYEKKPAIIDIVKELRDDGYKGPLLLRFPHLIQKQIENIYGNFNKARKEFGYKGGFNAVYPLKVNQYPGFVKNLVKLGKDYNYGLEAGSKAELLLAMAYNNEGAPITVNGFKDRELINIGFIAAEMGHNITLTIEGLNELEAIIDIAKERFKPKPNIGLRVRLHSAGVGIWAKSGGINSKFGLTSTELIEAVNLLKENKLLEQFTMIHFHLGSQITEIHPLKKALNEAGNIYTELRKMGAKNLKAINLGGGLAVEYSQFKNEKSRNYTLREYANDVVFILKNIAEQKKDLEPDIFIESGRFVAANHAVLIAPVLELFSQEYAENKLILKKQNPKLIDELYDLYKSIKPSNALEYLHDSIDHLESILTLFDLGYVDLQDRSNAEILTHLITKKAILLLGDKQNPADLLAIQDEVQERYLVNFSLFQSMPDFWGLEQNFPIMPLDRLDEEPTRSASIWDITCDSDGEISYSKDKPLFLHDVDVEKENYFLGFFLVGAYQEVLGMKHNLFTHPTEAIISINEKGYEVEGIIEAQSILDTLEDLDYDIHAIMDILNERISNSKLVNDKQKKHILGELYLFLNDNGYLKSIGVLEHHHHHH
protein production: not failed

MHKDELLELHEQMVTIMEYFRDDMDSVDPDLFDAYQELDVRPSDVHKSKSEHKHAVFVLGNSLATAMSEDEFSDAGRVSKRMKELAEDAERKLLEHHHHHH
protein production: not failed

MNYSIRLFKIMGIPIELHITFILFLVVIIGLSIMNNSIFWAVLFILLFVSVVLHELGHSYVAKKYGVKIEKILLLPIGGVAMMDKIPKEGELRIGIAGPLVSFIIGIVLLIVSQFFDININGYPLLYTLSLLNLMLGGFNLIPAFPMDGGRILRAILSKKYGYLKSTKIAANIGKSLALIMLLFGLLSMNIILILVSLFVYFGAEQESRVVEVETIFKNIKAKDIMTPNPVYVTPDMSIEEFLDFMLKHKYFGYPVVENGKLVGCIGIGNIHKKEGTVRDYMEKPVVVSEDTDIKEILRKMANTDRVFVVEGGKLKGIISKTDILRAMSILELKEELKD
protein production: failed

MSNLISRILTALIFGFITLCLTWVGGTLFFLFVWVIGGFILYEWMSITKEKWHVLQKILASVFYLVFGAFLISNASASLIFCILIALAALLAIGPMRKSVWVFFGFLYVCFPVVALSFLRGHEPLGFWVVIFLFTIVWGTDIAGYFSGRAFGGPKLAPQFSPNKTWMGAIGGTFVGVSGGILIAFQFFDLNSAVFFVLLLALILSIVSQMSDLGQSWLKRQFSVKDSGSLLPGHGGFMDRMDGLVGAAFLLYLIGSFMSNMDTPFNLFCMV
protein production: failed

MELREVAAVSGRGGLFKILKPTKNGVILEAIDPSKKRFVAGANERVSILNEISIYTTDKDGSVPLESVLHKIHAKYGADTKITGKSSNDELGNFLSSILPEYDREKVYHSDIKKLANWYAILQANFPELLVAKKEAAPKTEAKPAEAKEEKVKAVKEEKAEAPAPAAKKAAAKKVKEVSEEATEKPAAKKAAAKKTAKAKGE
protein production: failed

MKIFNLLVGGAPENLPDNLNDFEGDWIGVDRGALKLIEMGLIPEVAVGDFDSVNDQEFKEIEANAKQVIKLDPVKDDTDTESGLKYALDHDPRAHIRVLGISGGRLDHLLANVLMVLQDRFRMFAEQIELIDRQNNIRFFNSGKHTVDKLEGFKYLSFIPLTQIDVLTLDDEKYELHNAMVSNARAYVSNEFIDSKATVYLSNGLVAVIQSKD
protein production: failed

From a protein production outcome set (Wang et al. 2014)
